Experiments:
Test in all cases: cell_activity
[1] = test system: GAL4(1-147)-Egr-1(281-314) (Saccharomyces cerevisiae / Mus musculus); conditions: 1 µg effector plasmid
[2] = test system: GAL4(1-147)-Egr-1(240-330) (Saccharomyces cerevisiae / Mus musculus); conditions: GAL4-site-dependent
[3] = test system: GAL4(1-147)-Egr-1(3-281) (Saccharomyces cerevisiae / Mus musculus); conditions: GAL4-site-dependent activation; text says amino acids 1-281
[4] = test system: GAL4(1-147)-Egr-1(420-533) (Saccharomyces cerevisiae / Mus musculus); conditions: GAL4-site-dependent activation

Substance	activity (fold repression) [1]	activity (fold repression) [2]	activity [3] [fold]	activity [4] [fold]
GAL4 5 tkCAT reporter plasmid	> 5	10		
GAL4 reporter, five GAL4 sites with E1b minimal promoter			100	5

Source: patent US5763209
